According to patent publication US20210230570:

Experiments:
[1] = test system: plasma purified human AT-III (antithrombin III), in complex with low molecular weight heparin; assay: same assay; ratio of K0.5 to that of Catalyst Biosciences WT FIXa
[2] = test system: Antithrombin III (AT-III), plasma purified human, in complex with full-length unfractionated heparin (UFH)
[3] = molecular target: Factor X (FX), active site titrated and DFP/EGR-cmk treated zymogen (UniProt P00742)
Factor X (FX) = Factor X (FX) (UniProt P00742)
Factor X = Factor X (UniProt P00742)
Sequence of Factor X (P00742 41-488): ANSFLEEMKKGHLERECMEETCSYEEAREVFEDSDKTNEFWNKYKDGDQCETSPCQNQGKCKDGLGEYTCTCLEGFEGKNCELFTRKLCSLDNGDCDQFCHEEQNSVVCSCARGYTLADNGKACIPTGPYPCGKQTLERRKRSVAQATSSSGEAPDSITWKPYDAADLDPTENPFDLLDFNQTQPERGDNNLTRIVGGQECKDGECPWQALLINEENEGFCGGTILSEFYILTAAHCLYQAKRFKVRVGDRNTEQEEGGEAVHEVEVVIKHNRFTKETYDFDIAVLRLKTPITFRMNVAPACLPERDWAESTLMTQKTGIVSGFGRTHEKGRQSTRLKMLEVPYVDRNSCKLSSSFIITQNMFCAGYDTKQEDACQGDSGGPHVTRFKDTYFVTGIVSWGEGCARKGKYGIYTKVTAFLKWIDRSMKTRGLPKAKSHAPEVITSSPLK

Sequence of Factor X (FX) (P00742 41-488): as above
Sequence of Factor X (FX), active site titrated and DFP/EGR-cmk treated zymogen (P00742 41-488): as above

Substance: BeneFIX Coagulation Factor IX (Recombinant), activated (FIXa)
- K0.5-mut/K0.5-wt [1]: 0.9

Substance: FIXa A103N/N105S
- K0.5 [2]: 20 nM
- K0.5-mut/K0.5-wt [2]: 1

Substance: FIXa A103N/N105S (A[103]N/N[105]S by chymotrypsin numbering)
- kcat [3]: 3.1 s⁻¹

Substance: FIXa A103N/N105S/Y155F
- K0.5 [2]: 11 nM
- K0.5-mut/K0.5-wt [2]: 0.6

Substance: FIXa A103N/N105S/Y155F (A[103]N/N[105]S/Y[155]F by chymotrypsin numbering)
- kcat [3]: 3.2 s⁻¹

Substance: FIXa D64A
- K0.5 [2]: 16 nM
- K0.5-mut/K0.5-wt [2]: 0.8

Substance: FIXa D64A (D[64]A by chymotrypsin numbering)
- kcat [3]: 0.3 s⁻¹

Substance: FIXa D64N (D[64]N by chymotrypsin numbering)
- kcat [3]: 1.2 s⁻¹

Substance: FIXa D85N
- K0.5 [2]: 17 nM
- K0.5-mut/K0.5-wt [2]: 0.9

Substance: FIXa D85N (D[85]N by chymotrypsin numbering)
- kcat [3]: 4.2 s⁻¹

Substance: FIXa D104N/K106S
- K0.5 [2]: 20 nM
- K0.5-mut/K0.5-wt [2]: 1

Substance: FIXa D104N/K106S (D[104]N/K[106]S by chymotrypsin numbering)
- kcat [3]: 3.1 s⁻¹

Substance: FIXa D104N/K106S/Y155F
- K0.5 [2]: 6 nM
- K0.5-mut/K0.5-wt [2]: 0.3

Substance: FIXa D104N/K106S/Y155F (D[104]N/K[106]S/Y[155]F by chymotrypsin numbering)
- kcat [3]: 2.9 s⁻¹

Substance: FIXa K5A
- K0.5 [2]: 22 nM
- K0.5-mut/K0.5-wt [2]: 1.2
- KM (Factor X (FX)): 0.0654 µM

Substance: FIXa K5A (K[5]A by chymotrypsin numbering)
- kcat [3]: 3.1 s⁻¹

Substance: FIXa N157D
- K0.5 [2]: 17 nM

Substance: FIXa N157Q
- K0.5 [2]: 16 nM

Substance: FIXa N167D
- K0.5 [2]: 12 nM

Substance: FIXa N167Q
- K0.5 [2]: 12 nM

Substance: FIXa S53A
- K0.5 [2]: 27 nM
- K0.5-mut/K0.5-wt [2]: 1.4

Substance: FIXa S53A (S[53]A by chymotrypsin numbering)
- kcat [3]: 3.7 s⁻¹

Substance: FIXa S61A
- K0.5 [2]: 19 nM
- K0.5-mut/K0.5-wt [2]: 1

Substance: FIXa S158D
- K0.5 [2]: 15 nM

Substance: FIXa S158E
- K0.5 [2]: 14 nM

Substance: FIXa T159A
- K0.5 [2]: 33 nM

Substance: FIXa T169A
- K0.5 [2]: 17 nM

Substance: FIXa T172A
- K0.5 [2]: 16 nM

Substance: FIXa Y155F
- K0.5 [2]: 13 nM

Substance: FIXa Y155H
- K0.5 [2]: 25 nM

Substance: FIXa Y155Q
- K0.5 [2]: 23 nM

Substance: FIXa-A103N/N105S
- K0.5-mut/K0.5-wt [1]: 1.1

Substance: FIXa-A103N/N105S/Y155F
- kcat (Factor X): 3.2 s⁻¹
- % of WT (kcat/KM) (Factor X (FX)): 85%
- kcat/KM (M^-1s^-1) (Factor X (FX)): 3.9e+07 M⁻¹ s⁻¹

Substance: FIXa-D64A
- kcat (Factor X): 0.3 s⁻¹
- kcat/KM (M^-1s^-1) (Factor X (FX)): 2.5e+06 M⁻¹ s⁻¹

Substance: FIXa-D64N
- kcat (Factor X): 1.2 s⁻¹
- kcat/KM (M^-1s^-1) (Factor X (FX)): 1e+07 M⁻¹ s⁻¹

Substance: FIXa-D85N
- kcat (Factor X): 4.1 s⁻¹
- % of WT (kcat/KM) (Factor X (FX)): 153%
- kcat/KM (Factor X (FX)): 7e+07 M⁻¹ s⁻¹
- kcat/KM (M^-1s^-1) (Factor X (FX)): 7.3e+07 M⁻¹ s⁻¹
- K0.5-mut/K0.5-wt [1]: 1.1

Substance: FIXa-D104N/K106S
- % of WT (kcat/KM) (Factor X (FX)): 83%
- kcat/KM (M^-1s^-1) (Factor X (FX)): 3.8e+07 M⁻¹ s⁻¹
- K0.5-mut/K0.5-wt [1]: 0.9

Substance: FIXa-D104N/K106S/Y155F
- kcat (Factor X): 2.9 s⁻¹
- % of WT (kcat/KM) (Factor X (FX)): 78%
- kcat/KM (M^-1s^-1) (Factor X (FX)): 3.6e+07 M⁻¹ s⁻¹

Substance: FIXa-K5A
- kcat (Factor X): 3.5 s⁻¹

Substance: FIXa-K106N/V108S
- kcat (Factor X): 2.5 s⁻¹
- % of WT (kcat/KM) (Factor X (FX)): 60%
- kcat/KM (M^-1s^-1) (Factor X (FX)): 2.8e+07 M⁻¹ s⁻¹
- K0.5-mut/K0.5-wt [1]: 1.6

Substance: FIXa-S53A
- kcat (Factor X): 3.7 s⁻¹
- % of WT (kcat/KM) (Factor X (FX)): 76%
- kcat/KM (M^-1s^-1) (Factor X (FX)): 3.5e+07 M⁻¹ s⁻¹

Substance: FIXa-S61A
- % of WT (kcat/KM) (Factor X (FX)): 105%
- kcat/KM (M^-1s^-1) (Factor X (FX)): 4.8e+07 M⁻¹ s⁻¹

Substance: Plasma Purified FIXa
- K0.5 [2]: 30 nM
